Measured values taken from US20110136733A1 (IPSEN PHARMA S A S, published 2011).
Where no end group is shown, it is not given here. [ ]: non-standard residue; d: D form. The star is where a group is joined. Myristoyl = CCCCCCCCCCCCCC(=O)*; Ac6c = NC1(C(=O)O)CCCCC1; Orn = NCCC[C@H](N)C(=O)O; Ac5c = NC1(C(=O)O)CCCC1; Aib = CC(C)(N)C(=O)O

T1: human recombinant GIP receptor (human, UniProt P48546 22-466)
T1 construct: whole, on cells; Membranes of CHO-K1 cells expressing the receptor; also called hGIP receptor
T1 sequence (looked up): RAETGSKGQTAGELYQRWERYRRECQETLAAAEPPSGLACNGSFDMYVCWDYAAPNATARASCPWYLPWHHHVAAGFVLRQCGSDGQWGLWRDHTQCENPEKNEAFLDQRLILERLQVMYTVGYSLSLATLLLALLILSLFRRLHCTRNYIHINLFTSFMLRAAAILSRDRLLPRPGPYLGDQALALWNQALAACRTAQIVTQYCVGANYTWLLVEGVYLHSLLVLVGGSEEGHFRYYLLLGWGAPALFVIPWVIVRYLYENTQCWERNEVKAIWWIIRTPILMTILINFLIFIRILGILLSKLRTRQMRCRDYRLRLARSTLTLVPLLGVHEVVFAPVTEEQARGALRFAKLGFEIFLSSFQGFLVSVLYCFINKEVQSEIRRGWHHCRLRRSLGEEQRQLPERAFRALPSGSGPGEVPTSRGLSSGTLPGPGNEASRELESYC


The binders below were run against T1, human recombinant GIP receptor (assay: [125I]GIP competition, membranes of CHO-K1 cells expressing human GIP receptor, same conditions as Table 2).

Binder	Ki
YAPGTFISDYSIAMDKIHQQDFVNWLLAQKGKKNDWKHNITQ-OH [[Pro^3]hGIP(1-42)-OH]	171 nM

What follows are binders tested against T1, human recombinant GIP receptor (assay: [125I]GIP competition, membranes of CHO-K1 cells expressing human GIP receptor).

Binder	Ki
YAPGTFISDYXIAMDKIHQQDFVNWLLAQK (A5c at 11; C-terminal amide) [(Pro^3, A5c^11)hGIP(1-30)-NH2]	65.8 nM
Y[Aib]EGTF[Ac6c]SDYSIAMDKIHQQDFVNWLLAQKGKKNDWKHNITQQ-OH [(Aib^2, A6c^7, Gln^43)hGIP(1-43)-OH]	0.94 nM
YAEGTFISDYXIAMDKIHQQDFVNWLLAQKGKKNDWKHNITQH (D-Ala at 2; A5c at 11; C-terminal free acid, X stands for the non-natural residue) [(D-Ala^2, A5c^11, His^43)hGIP(1-43)-OH]	0.56 nM
YGEGTFISDYXIAMDKIHQQDFVNWLLAQKGKKNDWKHNITQH (A5c at 11; C-terminal free acid) [(Gly^2, A5c^11, His^43)hGIP(1-43)-OH]	0.97 nM
Y[Aib]EGTF[Ac5c]SDYSIAMDKIHQQDFVNWLLAQKGKKNDWKHNITQ-OH [(Aib^2, A5c^7)hGIP(1-42)-OH]	0.41 nM
[Orn](Myristoyl)AEGTF[Ac6c]SDYSIAMDKIHQQDFVNWLLAQKGKKNDWKHNITQ-OH [[Orn^1(N-C(O)-(CH2)12-CH3), A6c^7]hGIP(1-42)-OH]	21.5 nM
YXEGTFXSDYSIAXDKIHQQDFVNWLLAQKGKKNDWKHNITQ (Aib at 2; A5c at 7 and 14; C-terminal free acid) [(Aib^2, A5c^7, 14)hGIP(1-42)-OH]	0.22 nM
YAXGTFISDYSIXXDKIHQQDFVNWLLAQKGKKNDWKHNITQ (hPro at 3; Aib at 13; Nle at 14; C-terminal free acid) [(hPro^3, Aib^13, Nle^14)hGIP(1-42)-OH]	330 nM
YXEGTFISDYSXAMDKIHQQDFVNWLLAQKGKKNDWKHNITQ (Aib at 2 and 12; C-terminal free acid) [(Aib^2, 12)hGIP(1-42)-OH]	4.98 nM
YAEGTFISDYXIAMDKIHQQDFVNWLLAQKGKKNDWKHNXTQ (D-Ala at 2; A5c at 11 and 40; C-terminal free acid, X stands for the non-natural residue) [(D-Ala^2, A5c^11,40)hGIP(1-42)-OH]	0.59 nM
XXEGTFISDYXIAXDKIHQQDFVNWLLAQKGKKNDWKHNITQ (NMe-Tyr at 1; Aib at 2; A5c at 11; Nle at 14; C-terminal free acid) [(NMe-Tyr^1, Aib^2, A5c^11, Nle^14)hGIP(1-42)-OH]	0.19 nM
YXEGTFISDYSXAMDKIHQQDFVNWLLAQKGKKNDWKHNITQ (Aib at 2; A5c at 12; C-terminal free acid) [(Aib^2, A5c^12)hGIP(1-42)-OH]	1.65 nM
YAXGTFISDYXIAXDKIHQQDFVNWLLAQKGKKNDWKHNITQ (Tic at 3; A5c at 11; A6c at 14; C-terminal free acid) [(Tic^3, A5c^11, A6c^14)hGIP(1-42)-OH]	754 nM
YAPGTFISDYXIAXDKIHQQDFVNWLLAQKGKKNDWKHNITQ (A5c at 11; A6c at 14; C-terminal free acid) [(Pro^3, A5c^11, A6c^14)hGIP(1-42)-OH]	648 nM
XAEGTFISDYSIXMDKIHQQDFVNWLLAQKGKKNDWKHNITQ (4Hppa (3-(4-hydroxyphenyl)propionic acid) at 1; Aib at 13; C-terminal free acid) [(4Hppa^1, Aib^13)hGIP(1-42)-OH]	2.25 nM
YAXGTFISDYSIAXDKIHQQDFVNWLLAQKGKKNDWKHNITQ (4Hyp at 3; A6c at 14; C-terminal free acid) [(4Hyp^3, A6c^14)hGIP(1-42)-OH]	910 nM
YAXGTFISDYXIAMDKIHQQDFVNWLLAQKGKKNDWKHNITQ (Tic at 3; A5c at 11; C-terminal free acid) [(Tic^3, A5c^11)hGIP(1-42)-OH]	503 nM
YAXGTFISDYSIXXDKIHQQDFVNWLLAQKGKKNDWKHNITQ (Dhp at 3; Aib at 13; Nle at 14; C-terminal free acid) [(Dhp^3, Aib^13, Nle^14)hGIP(1-42)-OH]	727 nM
YAPGTFISDYSIAXDKIHQQDFVNWLLAQKGKKNDWKHNITQ (A6c at 14; C-terminal free acid) [(Pro^3, A6c^14)hGIP(1-42)-OH]	214 nM
YAEGTFISDYXIAMDKIHQQDFVNWLLAQKGKKNDWKHNIXQ (D-Ala at 2; A5c at 11 and 41; C-terminal free acid, X stands for the non-natural residue) [(D-Ala^2, A5c^11, 41)hGIP(1-42)-OH]	0.36 nM
YXEGTFISDYXIAXDKIHQQDFVNWLLAQKGKKNDWKHNITQ (Aib at 2; A5c at 11; A6c at 14; C-terminal free acid) [(Aib^2, A5c^11, A6c^14)hGIP(1-42)-OH]	0.18 nM
YAEGTFISDYXIAXDKIHQQDFVNWLLAQKGKKNDWKHNIXQ (D-Ala at 2; A6c at 11, 14 and 41; C-terminal free acid, X stands for the non-natural residue) [(D-Ala^2, A6c^11, 14, 41)hGIP(1-42)-OH]	6.67 nM
YAPGTFISDYSIXXDKIHQQDFVNWLLAQKGKKNDWKHNITQ (Aib at 13; Nle at 14; C-terminal free acid) [(Pro^3, Aib^13, Nle^14)hGIP(1-42)-OH]	667 nM
